According to patent publication CN112079917A (CANVEST WUHAN BIOTECHNOLOGY CO LTD, dated 2020):

Legend:
BSA = BSA (UniProt P02769 25-607); test: ELISA, IgG form
[1] = target: 17SF HA毒株 (A/Guangdong/17SF003/2016) HA蛋白 (influenza A virus A/Guangdong/17SF003/2016 (H7N9)); test: ELISA, IgG form on HA protein
[2] = target: SH02 HA毒株 (A/Shanghai/2/2013 H7N9) HA蛋白 (influenza A virus A/Shanghai/2/2013 H7N9); test: ELISA, IgG form on HA protein

Sequence of BSA (P02769 25-607 limits assumed): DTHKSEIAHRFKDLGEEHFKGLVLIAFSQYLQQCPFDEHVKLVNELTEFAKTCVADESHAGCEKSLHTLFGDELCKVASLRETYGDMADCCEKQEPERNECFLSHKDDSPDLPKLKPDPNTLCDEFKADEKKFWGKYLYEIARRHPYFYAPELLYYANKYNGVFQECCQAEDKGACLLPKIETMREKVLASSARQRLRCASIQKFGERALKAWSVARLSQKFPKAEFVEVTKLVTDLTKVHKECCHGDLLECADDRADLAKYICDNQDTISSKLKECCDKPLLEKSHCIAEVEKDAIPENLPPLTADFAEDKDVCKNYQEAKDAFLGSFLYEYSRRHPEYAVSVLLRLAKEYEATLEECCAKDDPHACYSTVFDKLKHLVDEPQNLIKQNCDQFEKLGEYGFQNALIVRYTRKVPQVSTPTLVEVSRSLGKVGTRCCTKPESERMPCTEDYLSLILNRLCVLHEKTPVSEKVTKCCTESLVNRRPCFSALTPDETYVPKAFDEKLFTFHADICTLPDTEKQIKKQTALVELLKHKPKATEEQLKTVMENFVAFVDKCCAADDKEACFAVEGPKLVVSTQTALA

B1: H7N9病毒特异性识别抗体P51H08 (IgG形式) (antibody, V domains shown)
VH: QVQLVQSGGGLVQPGGSMRLSCAASGFTFSSYAMSWVRQAPGKGLEWVSGISGSGGSTYYADSVKGRFTISRDNSKNTLHLPMNSLRADDTAVYYCAKDLNWWPDYWGQGTLVTVSS
VL: SYVLTQPPSVSVAPGKTASMTCGGNNIGSKRVHWYQQKPGQAPVLVVYNDNERPSAIPERFSGSNSGNTATLTVSRVEAGDEADYYCLVWDSSSLHRVFGGGTKLTVLG
Q: What does the source list for B1?
A: binding result (BSA): no binding; EC50 [1]: 3.56 nM; EC50 [2]: 1.65 nM
